Like-named read-outs stand apart in the source and are kept apart here.
What was measured:
[1] = biological target: ΔEspP peptide labeled with carboxyfluorescein; assay: fluorescence polarisation
[2] = biological target: ΔEspP peptide labeled with carboxyfluorescein; assay: fluorescence polarisation; remark: listed apart in the source
[3] = biological target: ΔEspP peptide labeled with carboxyfluorescein; assay: fluorescence polarisation; remark: listed apart in the source
[4] = biological target: ΔEspP peptide labeled with carboxyfluorescein; assay: fluorescence polarisation; remark: listed apart in the source
[5] = biological target: T1, FtsY (Escherichia coli), P10121; assay: other fluorescence titration; conditions: remark: other sources report otherwise
T1 chain: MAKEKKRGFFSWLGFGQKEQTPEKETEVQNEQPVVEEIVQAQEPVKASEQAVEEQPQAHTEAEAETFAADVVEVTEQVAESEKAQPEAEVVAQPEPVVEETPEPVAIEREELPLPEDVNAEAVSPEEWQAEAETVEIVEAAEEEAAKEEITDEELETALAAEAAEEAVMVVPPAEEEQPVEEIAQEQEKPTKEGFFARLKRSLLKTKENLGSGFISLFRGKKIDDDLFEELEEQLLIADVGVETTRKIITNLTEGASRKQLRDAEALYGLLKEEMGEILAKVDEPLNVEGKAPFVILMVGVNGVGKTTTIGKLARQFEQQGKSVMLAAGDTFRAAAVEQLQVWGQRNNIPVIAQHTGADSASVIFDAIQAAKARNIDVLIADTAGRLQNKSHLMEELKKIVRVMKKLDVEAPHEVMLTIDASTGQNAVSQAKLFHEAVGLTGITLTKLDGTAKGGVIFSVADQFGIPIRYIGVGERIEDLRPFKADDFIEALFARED

| Binder | Kd [1] [µM] | Kd [2] [µM] | Kd [3] [µM] | Kd [4] [µM] | fold change of the association rate with C12E8 against without (with 4.5S RNA) [5] [fold] | fold change of the association rate with ΔEspP* against without (with 4.5S RNA) [5] [fold] | fold change of the dissociation rate with C12E8 against without (with 4.5S RNA) [5] [fold] | fold change of the dissociation rate with ΔEspP* against without (with 4.5S RNA) [5] [fold] |
| --- | --- | --- | --- | --- | --- | --- | --- | --- |
| Ffh (natural protein) MFDNLTDRLSRTLRNISGRGRLTEDNVKDTLREVRMALLEADVALPVVREFINRVKEKAVGHEVNKSLTPGQEFVKIVRNELVAAMGEENQTLNLAAQPPAVVLMAGLQGAGKTTSVGKLGKFLREKHKKKVLVVSADVYRPAAIKQLETLAEQVGVDFFPSDVGQKPVDIVNAALKEAKLKFYDVLLVDTAGRLHVDEAMMDEIKQVHASINPVETLFVVDAMTGQDAANTAKAFNEALPLTGVVLTKVDGDARGGAALSIRHITGKPIKFLGVGEKTEALEPFHPDRIASRILGMGDVLSLIEDIESKVDRAQAEKLASKLKKGDGFDLNDFLEQLRQMKNMGGMASLMGKLPGMGQIPDNVKSQMDDKVLVRMEAIINSMTMKERAKPEIIKGSRKRRIAAGCGMQVQDVNRLLKQFDDMQRMMKKMKKGGMAKMMRSMKGMMPPGFPGR | 21.6 | 5.5 | 1.5 | 19.6 | – | – | – | – |
| Ffh, P0AGD7 1-453 (natural protein) MFDNLTDRLSRTLRNISGRGRLTEDNVKDTLREVRMALLEADVALPVVREFINRVKEKAVGHEVNKSLTPGQEFVKIVRNELVAAMGEENQTLNLAAQPPAVVLMAGLQGAGKTTSVGKLGKFLREKHKKKVLVVSADVYRPAAIKQLETLAEQVGVDFFPSDVGQKPVDIVNAALKEAKLKFYDVLLVDTAGRLHVDEAMMDEIKQVHASINPVETLFVVDAMTGQDAANTAKAFNEALPLTGVVLTKVDGDARGGAALSIRHITGKPIKFLGVGEKTEALEPFHPDRIASRILGMGDVLSLIEDIESKVDRAQAEKLASKLKKGDGFDLNDFLEQLRQMKNMGGMASLMGKLPGMGQIPDNVKSQMDDKVLVRMEAIINSMTMKERAKPEIIKGSRKRRIAAGCGMQVQDVNRLLKQFDDMQRMMKKMKKGGMAKMMRSMKGMMPPGFPGR | – | – | – | – | 70 | > 40 | 23 | 10 |

— article PMC2767340
